From publication doi:10.1101/2021.01.12.426394
Where no end group is shown, it is not given here.

B1: tachykinin-related peptide 2 (TRP2), unlabeled (peptide)
peptide: ALMGFQGVR-NH2
B2: tachykinin-related peptide 3 (TRP3), unlabeled (peptide)
peptide: APMGFQGMR-NH2

Tests used:
[1] = biological target: honeybee tachykinin-related peptide receptor, FLAG-TRPR expressed in HEK293 cells (Apis mellifera); assay: competitive binding of a fluorescent ligand on cells
[2] = biological target: honeybee tachykinin-related peptide receptor, FLAG-TRPR expressed in Sf21 cells (Apis mellifera); assay: as above

Binder	IC50 [1]	IC50 [2]
B1	2.34 nM	8.76 nM
B2	6.29 nM	34.9 nM
